Data: US20170306053A1 (Astellas, published 2017)
Like-named read-outs stand apart in the source and are kept apart here. One block for each binder: values may come before it.

Assays:
[1] = biological target: T1, human TLR2 protein (R&D systems Co., 2616 TR/CF) (human, UniProt O60603 21-590); test: SPR (Biacore T200), human TLR2 captured on anti-His IgG, antibody as analyte, bivalent analyte model
T1 construct: Bought protein captured on an anti-His IgG chip; not shown: His tag implied by capture on anti-His IgG
Procedure: In order to evaluate the binding activity of the tandem form a prepared in Example 1 to the human TLR2, SPR analysis was performed. The tandem form c and the TLR2-IgG were used as the reference antibody. For SPR analysis, Biacore T200 (GE Healthcare Japan Corporation) was used. Anti-His IgG (attached to His Capture Kit) was immobilized on CMS sensor chip using His Capture Kit (GE Healthcare Japan Corporation, 28-9950-56) and Amine Coupling Kit (GE Healthcare Japan Corporation, BR-1000-50). […] Thereafter, a solution (eight step, two fold serial dilution in the concentration range of final concentration from 100 nM to 0.781 nM) obtained by serially diluting each purified antibody (tandem form a, tandem form c, or TLR 2-IgG) with HBS-EP+buffer was added at a flow rate of 50 μL/min for 2 minutes, and the binding between the purified antibody and TLR 2 was measured. Next, HBS-EP+buffer was added at a flow rate of 50 μL/min for 5 minutes, and dissociation of the purified antibody and the human TLR2 was measured. Bivalent analyte model, Rmax was analyzed by Fit local, a binding rate constant (kₐ) and a dissociation rate constant (kd) were calculated, and kd was divided by kₐ to calculate the binding dissociation constant (KD).

[2] = biological target: T2, human TLR4/MD2 (on cells) (human, UniProt O00206 24-839; Q9Y6Y9 19-160); test: cell ELISA on human TLR4/MD2 expressing HEK 293 cells
T2 construct: whole, on cells; Cell ELISA on human TLR4/MD2 expressing HEK 293 cells; neutralisation assays on U937 cells with endogenous TLR4/MD2; also called Human TLR4/MD2 expressing HEK 293 cells; U937 cells that endogenously express the human TLR4/MD2
Procedure: In order to evaluate the binding activity of the tandem form a (bispecific antibody format having the anti-human TLR2 antibody portion on the outer side and the anti-human TLR4 antibody portion on the inner side) prepared in Example 1 to the human TLR4, cell ELISA was performed. As reference antibodies, the tandem form c and the TLR4-IgG were used. Human TLR4/MD2 expressing HEK 293 cells were seeded at 1×10⁴ cells/well in a BD Bio Coat poly D-lysine 384 well plate (Becton Dickinson Co., Ltd.) using an α-MEM culture medium (Life Technologies Co., Ltd.) and incubated overnight. […] Twenty minutes later, 25 μL of 1 M sulfuric acid was added to stop the color reaction, and the color intensity thereof was measured with Safire II (Tecan Co., Ltd.) to evaluate the binding activity of the antibody. Using the obtained measurement results, 50% effective concentration (EC₅₀) of each antibody was calculated from 4 parameter logistic curve regression by statistical analysis software GraphPad Prism (GraphPad Software Co., Ltd.).

[3] = biological target: T2, human TLR4/MD2 (on cells); test: cell-based or functional assay
[4] = biological target: T2, human TLR4/MD2 (on cells); test: cell-based or functional assay; remark: listed apart in the source
[5] = biological target: human TLR2 (endogenous, on U937 cells) (human, UniProt O60603 21-784); test: cell-based or functional assay
human TLR2 (endogenous, on U937 cells), sequence (O60603 21-784): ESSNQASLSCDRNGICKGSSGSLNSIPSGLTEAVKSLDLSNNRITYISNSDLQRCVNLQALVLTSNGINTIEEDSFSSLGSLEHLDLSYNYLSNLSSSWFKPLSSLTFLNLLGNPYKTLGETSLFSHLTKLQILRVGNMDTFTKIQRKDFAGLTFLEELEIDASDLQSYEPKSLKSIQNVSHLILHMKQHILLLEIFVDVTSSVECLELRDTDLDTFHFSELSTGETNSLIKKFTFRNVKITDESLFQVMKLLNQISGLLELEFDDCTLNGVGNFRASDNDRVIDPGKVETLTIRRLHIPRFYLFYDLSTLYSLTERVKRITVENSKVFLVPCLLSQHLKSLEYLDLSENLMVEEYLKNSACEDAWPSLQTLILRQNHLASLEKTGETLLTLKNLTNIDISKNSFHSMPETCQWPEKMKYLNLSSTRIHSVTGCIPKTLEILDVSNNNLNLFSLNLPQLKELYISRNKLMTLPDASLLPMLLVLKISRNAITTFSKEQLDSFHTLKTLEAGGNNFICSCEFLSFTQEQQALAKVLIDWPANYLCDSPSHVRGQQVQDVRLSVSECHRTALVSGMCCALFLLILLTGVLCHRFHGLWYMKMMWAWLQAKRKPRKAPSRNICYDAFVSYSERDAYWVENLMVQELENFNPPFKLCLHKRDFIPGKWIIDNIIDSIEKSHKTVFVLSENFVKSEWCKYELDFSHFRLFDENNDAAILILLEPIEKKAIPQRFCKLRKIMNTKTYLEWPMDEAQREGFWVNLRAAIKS

T2 sequence (O00206 24-839, chain 1 of 2): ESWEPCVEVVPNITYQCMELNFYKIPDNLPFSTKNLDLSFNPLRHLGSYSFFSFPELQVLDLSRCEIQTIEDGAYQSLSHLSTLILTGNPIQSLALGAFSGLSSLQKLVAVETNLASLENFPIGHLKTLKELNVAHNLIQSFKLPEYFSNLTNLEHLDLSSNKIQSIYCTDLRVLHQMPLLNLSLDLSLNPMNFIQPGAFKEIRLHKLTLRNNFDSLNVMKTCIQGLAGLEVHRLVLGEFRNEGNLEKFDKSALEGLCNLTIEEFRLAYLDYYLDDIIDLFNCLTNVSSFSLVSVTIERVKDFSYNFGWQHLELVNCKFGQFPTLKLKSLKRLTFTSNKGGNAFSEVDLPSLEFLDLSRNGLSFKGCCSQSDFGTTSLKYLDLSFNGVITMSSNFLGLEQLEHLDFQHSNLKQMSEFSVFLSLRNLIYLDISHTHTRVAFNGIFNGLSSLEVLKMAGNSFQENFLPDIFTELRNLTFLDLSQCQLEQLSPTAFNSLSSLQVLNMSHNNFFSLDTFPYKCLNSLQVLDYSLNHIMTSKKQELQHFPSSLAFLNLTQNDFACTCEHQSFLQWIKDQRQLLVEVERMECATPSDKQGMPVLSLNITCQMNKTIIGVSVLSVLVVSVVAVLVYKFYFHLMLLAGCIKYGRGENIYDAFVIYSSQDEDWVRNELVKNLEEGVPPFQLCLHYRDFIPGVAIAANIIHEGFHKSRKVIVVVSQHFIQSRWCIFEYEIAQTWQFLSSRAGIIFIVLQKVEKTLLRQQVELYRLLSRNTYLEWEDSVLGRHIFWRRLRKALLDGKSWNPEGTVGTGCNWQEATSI
T2 sequence (Q9Y6Y9 19-160, chain 2 of 2): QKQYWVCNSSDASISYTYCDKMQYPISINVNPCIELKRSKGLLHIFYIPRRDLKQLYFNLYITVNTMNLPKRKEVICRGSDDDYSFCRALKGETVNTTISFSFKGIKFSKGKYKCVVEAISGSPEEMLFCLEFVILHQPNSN
T1 sequence (O60603 21-590): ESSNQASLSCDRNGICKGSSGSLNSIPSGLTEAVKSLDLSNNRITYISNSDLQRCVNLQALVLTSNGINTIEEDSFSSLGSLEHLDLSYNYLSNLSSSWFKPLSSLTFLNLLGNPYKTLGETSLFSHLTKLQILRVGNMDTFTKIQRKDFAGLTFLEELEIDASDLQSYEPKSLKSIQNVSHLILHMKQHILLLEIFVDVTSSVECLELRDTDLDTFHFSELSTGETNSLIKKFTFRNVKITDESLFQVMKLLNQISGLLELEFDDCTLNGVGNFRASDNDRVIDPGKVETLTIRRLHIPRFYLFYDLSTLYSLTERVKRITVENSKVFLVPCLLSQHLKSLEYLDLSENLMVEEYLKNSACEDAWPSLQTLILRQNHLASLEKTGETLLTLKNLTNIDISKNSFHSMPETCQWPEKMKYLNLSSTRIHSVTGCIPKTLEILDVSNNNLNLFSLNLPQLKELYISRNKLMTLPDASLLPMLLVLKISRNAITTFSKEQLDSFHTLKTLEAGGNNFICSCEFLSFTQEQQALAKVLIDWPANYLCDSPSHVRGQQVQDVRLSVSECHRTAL

Kd [1]: 2320 pM
B1: Tandem form a (protease recognition sequence SEQ ID NO: 5; light chain linker SEQ ID NO: 9) (bispecific antibody)
chain 1: not shown
chain 2: AIQMTQSPSSLSASVGDRVTITCRASQVIRNDLGWYQQKPGKAPKFLIYAASSLQSGVPSRFSGSGSGTDFTLTISSLQPEDFATYYCLQDYNYPLTFGGGTKVEIKRTVAAPSVFIFPPSDEQLKSGTASVVCLLNNFYPREAKVQWKVDNALQSGNSQESVTEQDSKDSTYSLSSTLTLSKADYEKHKVYACEVTHQGLSSPVTKSFNRGEC
chain 3: not shown

EC50 [2]: 380 pM | IC50 (M), Neutralization Activity to Human TLR4 (LPS-induced IL-6 production inhibition, U937 cells) [3]: 2.2e-12 M | IC50 (M), Neutralization Activity to Human TLR4 (LPS-induced IL-6 production inhibition, U937 cells) [4]: 2.2e-12 M
B2: TLR4-IgG (anti-human TLR4 antibody of IgG type) (antibody, V domains shown)
VH: EVQLVESGGGLVQPGGSLRLSCAASGFTFDTYAMHWVRQAPGKGLEWVAGISWNSGNIGYADSVKGRFTISRDNSKNTLYLQMNSLRAEDTAVYYCAKDWDNWNLFDYWGQGTLVTVSS
VL: DIQMTQSPSSLSASVGDRVTITCRASQSISSWLAWYQQKPGKAPKLLIYKASSLESGVPSRFSGSGSGTDFTLTISSLQPEDFATYYCQQYSSYSWTFGQGTKVEIKR
notes: it says variable regions and human Iggamma1 / Igkappa constant regions as used in tandem form a

Kd [1]: 2690 pM | IC50 (read off the curve); inhibition of Pam2CSK4-induced IL-6 production in U937 cells [5]: ~100 pM
B3: TLR2-IgG (anti-human TLR2 antibody of IgG type) (antibody, V domains shown)
VH: QVQLQESGPGLVKPSETLSLTCTVSGGSISSFYWTWIRQPPGKGLEWIGYIHYSGSTNYNPSLKSRVTISVDTSKNQFSLTLSSVTAADTAVYYCARRRSMNWFDPWGQGTLVIVSS
VL: AIQMTQSPSSLSASVGDRVTITCRASQVIRNDLGWYQQKPGKAPKFLIYAASSLQSGVPSRFSGSGSGTDFTLTISSLQPEDFATYYCLQDYNYPLTFGGGTKVEIKR
notes: as for B2
